Reference: publication PMC2928021

Biological target: anaphase-promoting complex/cyclosome (APC/C), phosphorylated, of mitotic cells (human (endogenous in U2OS)) (UniProt P30260)
Assay: co-sedimentation

Chain of UniProt P30260 (P30260 whole entry, looked up, one chain of several): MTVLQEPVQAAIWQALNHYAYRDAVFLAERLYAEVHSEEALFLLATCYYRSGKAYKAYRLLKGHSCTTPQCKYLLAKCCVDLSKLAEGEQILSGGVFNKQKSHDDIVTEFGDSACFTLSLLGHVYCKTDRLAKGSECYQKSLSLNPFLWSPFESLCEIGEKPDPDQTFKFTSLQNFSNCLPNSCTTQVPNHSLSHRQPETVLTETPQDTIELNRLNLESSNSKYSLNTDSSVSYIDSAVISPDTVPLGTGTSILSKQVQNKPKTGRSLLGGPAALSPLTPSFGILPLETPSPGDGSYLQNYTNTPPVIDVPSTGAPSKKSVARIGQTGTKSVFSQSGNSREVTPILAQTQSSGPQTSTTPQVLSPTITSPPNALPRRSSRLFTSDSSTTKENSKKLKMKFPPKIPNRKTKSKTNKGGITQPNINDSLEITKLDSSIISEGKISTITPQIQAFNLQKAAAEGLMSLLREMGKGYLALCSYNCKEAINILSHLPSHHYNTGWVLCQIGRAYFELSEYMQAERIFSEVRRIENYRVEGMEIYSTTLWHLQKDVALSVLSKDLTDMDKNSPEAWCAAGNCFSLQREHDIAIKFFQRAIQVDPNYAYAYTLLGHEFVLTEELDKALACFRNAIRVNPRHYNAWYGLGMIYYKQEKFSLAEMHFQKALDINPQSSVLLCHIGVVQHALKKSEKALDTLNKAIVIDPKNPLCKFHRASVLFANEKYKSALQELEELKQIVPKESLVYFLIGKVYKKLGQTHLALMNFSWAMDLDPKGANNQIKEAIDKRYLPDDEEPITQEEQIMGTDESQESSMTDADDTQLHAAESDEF

percent comigrating: 40%
Substance: cyclin B1–N–Cks1–Venus (from UniProt P14635;P61024)
